This is an account of results in PMC8580320 (Science Advances, 2021).

The data set concerns the molecule itself. As to the kind of experiment: crystal structure.

B1: MtaLonC-S582A (enzyme)
chain: MRLSYEALEWRTPIENSTEPVSLPPPPPFFGQERAREALELAIRGGFHAYLVGPPSLGKHEALLAYLSTQSVETPPDLLYVPLSERKVAVLTLPSGQEIHLAEAVEGLLLEVNRLDELFRQGSFLREKTQLEARFKEAREQQLEALRREAQEAGFALSTNGERLELTGPGPVPAELSARLEEVTLGSLAASAELEVALRRLRRDWALHYLNNRFEPLFQRFPQARAYLEALRARLARYAETGEPLDPAQWRPNLLTSSSSGTPPPIVYEPYATAPRLFGRLDYLVDRGVWSTNVSLIRPGAVHRAQGGYLILDALSLKREGTWEAFKRALRNGQVEPVTEPQAPAGLEVEPFPIQMQVILVGTPEAFEGLEEDPAFSELFRIRAEFSPTLPASPENCTALGGWLLAQGFQLTQGGLTRLYDEARRMAEQRDRMDARLVEIRALAEEAAVLGGGLLTAESVEQAIAAREHRSFLSEEEFLRAVQEGVIRLRTTGRAVGEVNSLVVVEAAPYWGRPARLTARAAPGRDHLISIDREAGLGGQIFHKAVLTLAGYLRSRYIEHGSLPVTISLAFEQNYVSIEGDAAGLAELVAALSAIGNLPLRQDLAVTGAVDQTGKVLAVGAINAKVEGFFRVCKALGLSGTQGVILPEANLANLTLRAEVLEAVRAGQFHIYAVETAEQALEILAGARMEGFRGLQEKIRAGLEAFARLEEGHDKEDREKLAAALEHHHHHH
Consider B1, for which the “stoichiometry N” value amounted to 6.

The term stoichiometry N denotes a count of units in the complex or per binding partner.
